This sample holds only a part of the variants without activity.
B1: TPR 5TU (parent)
chain: GGAUCUUCUCGAUCUAACAAAAAAGACAAAUCUGCCACAAAGCUUGAGAGCAUCUUCGGAUGCAGAGGCGGCAGCCUUCGGUGGCGCGAUAGCGCCAACGUUCUCAACUAUGACACGCAAAACGCGUGCUCCGUUGAAUGGAGUUUAUCAUG

Variants of: B1
Assay: polymerase ribozyme fitness, log enrichment relative to wild type (log ratio); higher = more active; in vitro selection for triplet polymerase activity
How it was run: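 Input and output libraries were sequenced on Illumina after a single in vitro selection round, run in triplicate on PCR-built, transcribed mutant libraries of each subunit of a heterodimeric triplet polymerase ribozyme. Selection annealed libraries to a biotinylated primer, the partner subunit and triplets, incubated them frozen at −7 °C, then gel-excised extended constructs for streptavidin-bead capture and RT-PCR. Genotypes with ≥10 input reads and ≥1 read per output were kept. Fitness is the logarithm, taken in base 2, of genotype enrichment divided by wild-type enrichment, using inverse-variance-weighted replicate averages.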

Variant	polymerase ribozyme fitness (log ratio)
C27G A39G G83A G143U	≤ -4.2
A26U U55G G86C C96U A97C C99A U102G	≤ -4.2
A28C U134A	≤ -4.2
A28U C87G U127A G133C U139A	-4.15
A29C A47U C76G C79A A97U C99A C125G U134A U144G	≤ -4.2
C27A G50A C54U C95A	≤ -4.2
A28C U45A G88A C96A G100A G143A	≤ -4.2
C27U A47U A49C G117A	≤ -4.2
A26C A41G A47C C69G G83A C93U G124U	≤ -4.2
A26U C85A	-2.68
A28C A39C C54G U61A C99U	≤ -4.2
C27A U53A A119C	≤ -4.2
A28G A29U	-3.79
A26U A52C C96A	-3.2
C27A A60U A91U A106U	≤ -4.2
C27U A30G A52C	≤ -4.2
C27A C54G G67U G84C	≤ -4.2
A28U U55G C85G G88A A89U C103U G143C	≤ -4.2
A28G C93U C118A	≤ -4.2
A28U A29G C32U C57G	≤ -4.2
C27G A28U G50U C87G G140C	-3.94
A28G A106C G133U A142C	≤ -4.2
A28C U56A C72U C76G	≤ -4.2
A28G G88U G92A A98G G133U U144A	≤ -4.2

Variant	polymerase ribozyme fitness (log ratio)
C27G G83A	-4.12
G25U C76G G92A A119U U145A C149A U151G	≤ -4.2
A26U A73U A91U C96G A137C	≤ -4.2
C27U A41C C95U C125U	-2.83
A29C C32A	≤ -4.2
A26U C36G U134A G143U U144C	≤ -4.2
A29C C32U C35G A66U C87A G94C A107U C125U	≤ -4.2
A26C U78A G84A G126C C149G	≤ -4.2
A26G U53A C85U A91G G133A U139A	≤ -4.2
A26C A52C C85U G117A A142G	-3.88
C27U A47G C93A	-4.19
A26C C85A G94C	-1.83
C27U A49G	-2.49
A26U U56A A98G	-1.83
A26C C105U	-2.13
A28U C35U A91U C132U	-3.89
C27U U55A	-0.901
C27U U44G U56A G58C U61A G86U U135C	≤ -4.2
A29C A37C A64G C87A C95G U146G	≤ -4.2
A26U U53A	-1.58
C27U U61G U82G A89U A91G G100A A113U G140U	≤ -4.2
C27A G50U C57U A60C C116G U146G A147C	≤ -4.2
A28U A39U	≤ -4.2
A28U G70U G83C C131U	≤ -4.2

Variant	polymerase ribozyme fitness (log ratio)
C27U A40C U55A C114U U139G	-3.95
G25U C38U	-1.98
C27G C54A	-3.98
C27A G58A G84A	≤ -4.2
C27G U56G	≤ -4.2
C27G A37U U55A U56A G70A G84C C108U	≤ -4.2
A26G A40G U55A G92A C123G C125U G126A U127C	≤ -4.2
A26C U61A A64U C85A A110C	≤ -4.2
G25U G58U A97C	-2.23
A28G G42C C43G U56C C85G G92A G124U A150U	≤ -4.2
A28C G84U G88C A91G G124U	≤ -4.2
A28U G67A G74A G86C C108A C132A	≤ -4.2
A26C C35U G88U C96G C108U G143A	≤ -4.2
A28U A40C C75U G83U G133A	≤ -4.2
C27A U101G	-3.63
C27A A30C A89G G92A C105U G140U	-3.96
A28U C79A C87G C96G	≤ -4.2
A28C A30U C35G C87A C105U	-3.84
A28C A47C G62C C108G A122C	≤ -4.2
A28U G48C C54U G74U U77A G86U A98U C103G	≤ -4.2
A26C A137G U144A	-4.13
A26G C27G C87U U148A	≤ -4.2
C27G A37U A64C G88C A91C A120G A122U U148G	-4.09
C27A C32U G46A G86U C105A	≤ -4.2

Variant	polymerase ribozyme fitness (log ratio)
G25U U61G A66C C87U A137G	≤ -4.2
A28C G84A C87G C96G A121U	≤ -4.2
A29C A52C C54U U82C U90A G136A	≤ -4.2
A26C A66C G81C G83C	-4.1
A28U A147C U151C G152C	≤ -4.2
A26G A66U C85A C95A G124C C131A	≤ -4.2
A26U A41C U44A G59A G126U G128A A137G	≤ -4.2
C27U C87U A142U	-3.03
A26G G83A G88A G94U C149G	-4.19
C27G C105A C114A A119G	≤ -4.2
C27G G141U	-4.04
A28G A106G U134G	≤ -4.2
A26G G58A C105G G117C U127G	≤ -4.2
A29C A37U C108U	-4.09
C27U C35U A49U C51G U53A G86U U151G	≤ -4.2
A26U G50C	≤ -4.2
C27U U55A G68U C85G	≤ -4.2
A29C A49G C69G U77G C79U C116U U146A	≤ -4.2
A28G G94C G100U U134G	≤ -4.2
A26G U55G C87A A115U C118U C149G	≤ -4.2
A26U G46U G58A A73U C85G U111G	≤ -4.2
A26U U31A G86U A147C	≤ -4.2
A28U U44A C87G A106C	≤ -4.2
A26U A122G C131A	-3.89

Variant	polymerase ribozyme fitness (log ratio)
A26G C27U A47G C54A U56G G86A	≤ -4.2
A26G A39G G42C A49G U55A U56A U130A U135G	≤ -4.2
A28G A39U U53A G71A C93A	≤ -4.2
A28C A41U C43U G46C C85A U130G U135C	≤ -4.2
A28U C43A U109G G141C	≤ -4.2
C27A A49C G59C G74C G136U	≤ -4.2
A28G A41C G42U A66G C96G G133U U144G	-4.13
C27G G80A G81C	-4.11
A26U U56A C93U	-3.4
A28C C57A A66U G71A C87A U102G A138C	≤ -4.2
C27U U56A G84U G86C C114G U145A	≤ -4.2
A26G G46A G48C C51U G71C C103U A120G C149G	≤ -4.2
A26C A52C C54A C114A C129G U134A	≤ -4.2
C27U A28U U53G C93A	≤ -4.2
A28G A29U A89C G141C	≤ -4.2
C27U A39U A73G C79U C93A	≤ -4.2
C27U U33C A73G C85U	-0.859
A26U U134A	-3.96
C27U U45A G71A C75A A89U C118A	≤ -4.2
A26C A91G G136C	≤ -4.2
A28G G84U	-4.02
A26C C57U C85G G92U	≤ -4.2
A26U U82A A106C	-3.93
C27A A49C U90G U145C	≤ -4.2

Variant	polymerase ribozyme fitness (log ratio)
C27U G42A G67U C69A G117A A150C	≤ -4.2
C27U G141C	-2.54
G25U C43A G58C A60C A91G	≤ -4.2
C27U G65C A66C A73U C93A C108G C129G	-3.81
A29C C36G U78C C93G A97G	≤ -4.2
A28U A29U G74C C79G A89C C118A A120U A122G C125G	≤ -4.2
C27U A41C G81U C96A	-2.31
A29C C51U G83C C95U A137G G143C	≤ -4.2
A28U G83A C116U U145A	≤ -4.2
A28C U33G U77C U90G C93A U148C G152A	≤ -4.2
A28U G58C C96A A97G U144A U145G	≤ -4.2
A29C A37C G74A A97G U130A	≤ -4.2
G25U C93A A147G	≤ -4.2
A26C C36G C116A U148G	≤ -4.2
A26C A37U C79U A106U G143C U146A U148C	≤ -4.2
A26G A60G	-3.55
C27A C87U	-3.91
A28U A40U A49C G68U U90G C96U A107G A110C	≤ -4.2
A29C A39C U53A A122G C123A U135G U146A	≤ -4.2
A26U C118G	-2.12
A28C A52G G88C A89G U101C C105G	≤ -4.2
C27U A97U C116U A120C	-3.06
A26U C87G	≤ -4.2
A26U C87U	-1.74

Variant	polymerase ribozyme fitness (log ratio)
C27U A28U C76U U78G C93G A119G	≤ -4.2
C27G A30G A39U C87A	≤ -4.2
C27G C85G G88A G100C U148G	≤ -4.2
A26U U151C	≤ -4.2
A28U G50C C54U C95A A107U G143U	≤ -4.2
C27G C35U G74U C118U U130A A137U	≤ -4.2
C27A C85A	≤ -4.2
A28U A47C C63G G86C C129A	≤ -4.2
A28C U31G G50C A52C G74A G80U G86U A121U	≤ -4.2
A28C A40U U53A G84U A115U	≤ -4.2
C27G G62A A64G A73C G88U C99U A107U G124A U130C U148A	≤ -4.2
C27U C32A G46U A47C U53A C87G	≤ -4.2
A28U U45A C57U A60G C75G G94A G126C	≤ -4.2
A28U U45A C57U A60C G84U A98U G117C	≤ -4.2
A29C C57G G71A U90C	≤ -4.2
C27G C57U A91U C95A C131G U134G G140A	≤ -4.2
A28C C32G C63U	≤ -4.2
C27U G34U C93U G112C U148G	≤ -4.2
A26G G59U	-3.78
C27A U56A	-3.7
C27U C63U C76U G81C U101G U146G	-3.39
C27G A39G C93G G112A C129G	≤ -4.2
C27U G81U C85U	-2.15

Reference: the RNAGym collection of RNA variant scans (doi:10.1073/pnas.2313332121)
